Values belong to the binder of their own block, whether it stands above or below them.
Columns and labels:
4H3029-AA = molecular target: T1, 4H3029-AA; assay: two-hybrid library CCmax; conditions: mean of both orientations;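 note: natural log of median RNA to DNA barcode read ratio; higher means stronger binding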
T1 chain: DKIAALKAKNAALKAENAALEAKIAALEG

4H3066-AA = molecular target: T2, 4H3066-AA; assay: two-hybrid library CCmax; conditions: mean of both orientations;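 note: natural log of median RNA to DNA barcode read ratio; higher means stronger binding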
T2 chain: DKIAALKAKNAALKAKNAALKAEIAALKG

4H3102-AA = molecular target: T3, 4H3102-AA; assay: two-hybrid library CCmax; conditions: mean of both orientations;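 note: natural log of median RNA to DNA barcode read ratio; higher means stronger binding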
T3 chain: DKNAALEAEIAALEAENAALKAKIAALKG

4H3121-AA = molecular target: T4, 4H3121-AA; assay: two-hybrid library CCmax; conditions: mean of both orientations;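 note: natural log of median RNA to DNA barcode read ratio; higher means stronger binding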
T4 chain: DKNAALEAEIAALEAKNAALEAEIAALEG

4H3417-AA = molecular target: T5, 4H3417-AA; assay: two-hybrid library CCmax; conditions: mean of both orientations;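 note: natural log of median RNA to DNA barcode read ratio; higher means stronger binding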
T5 chain: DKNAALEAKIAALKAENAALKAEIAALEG

4H3446-AA = molecular target: T6, 4H3446-AA; assay: two-hybrid library CCmax; conditions: mean of both orientations;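 note: natural log of median RNA to DNA barcode read ratio; higher means stronger binding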
T6 chain: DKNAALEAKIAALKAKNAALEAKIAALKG

4H3591-AA = molecular target: T7, 4H3591-AA; assay: two-hybrid library CCmax; conditions: mean of both orientations
T7 chain: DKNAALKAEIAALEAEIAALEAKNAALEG

4H3628-AA = molecular target: T8, 4H3628-AA; assay: two-hybrid library CCmax; conditions: mean of both orientations
T8 chain: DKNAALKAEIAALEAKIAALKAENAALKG

4H3666-AA = molecular target: T9, 4H3666-AA; assay: two-hybrid library CCmax; conditions: mean of both orientations
T9 chain: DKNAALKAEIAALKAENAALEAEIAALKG

4H3709-AA = molecular target: T10, 4H3709-AA; assay: two-hybrid library CCmax; conditions: mean of both orientations
T10 chain: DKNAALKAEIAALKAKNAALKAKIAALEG

4H391-AA = molecular target: T11, 4H391-AA; assay: two-hybrid library CCmax; conditions: mean of both orientations
T11 chain: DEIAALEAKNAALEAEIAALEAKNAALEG

4H3920-AA = molecular target: T12, 4H3920-AA; assay: two-hybrid library CCmax; conditions: mean of both orientations
T12 chain: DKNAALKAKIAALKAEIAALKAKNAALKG

4H3939-AA = molecular target: T13, 4H3939-AA; assay: two-hybrid library CCmax; conditions: mean of both orientations
T13 chain: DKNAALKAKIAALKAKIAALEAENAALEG

4H428-AA = molecular target: T14, 4H428-AA; assay: two-hybrid library CCmax; conditions: mean of both orientations
T14 chain: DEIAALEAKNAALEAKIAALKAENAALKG

4H478-AA = molecular target: T15, 4H478-AA; assay: two-hybrid library CCmax; conditions: mean of both orientations
T15 chain: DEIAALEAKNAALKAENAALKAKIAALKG

4H497-AA = molecular target: T16, 4H497-AA; assay: two-hybrid library CCmax; conditions: mean of both orientations
T16 chain: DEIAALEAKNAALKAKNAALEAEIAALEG

4H656-AA = molecular target: T17, 4H656-AA; assay: two-hybrid library CCmax; conditions: mean of both orientations
T17 chain: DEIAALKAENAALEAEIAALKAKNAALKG

4H675-AA = molecular target: T18, 4H675-AA; assay: two-hybrid library CCmax; conditions: mean of both orientations
T18 chain: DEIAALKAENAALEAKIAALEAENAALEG

4H971-AA = molecular target: T19, 4H971-AA; assay: two-hybrid library CCmax; conditions: mean of both orientations
T19 chain: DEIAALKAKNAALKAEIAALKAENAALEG

4H963-AA = molecular target: T20, 4H963-AA; assay: two-hybrid library CCmax
T20 chain: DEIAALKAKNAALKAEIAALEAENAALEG

4H349-bH = molecular target: T21, 4H349-bH; assay: two-hybrid library CCNG1
T21 chain: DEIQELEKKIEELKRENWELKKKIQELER

4H56-bH = molecular target: T22, 4H56-bH; assay: two-hybrid library CCNG1
T22 chain: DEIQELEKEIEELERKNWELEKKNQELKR

4H730-bH = molecular target: T23, 4H730-bH; assay: two-hybrid library CCNG1
T23 chain: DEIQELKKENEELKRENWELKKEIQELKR

4H796-bH = molecular target: T24, 4H796-bH; assay: two-hybrid library CCNG1
T24 chain: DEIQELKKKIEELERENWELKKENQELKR

4H932-bH = molecular target: T25, 4H932-bH; assay: two-hybrid library CCNG1
T25 chain: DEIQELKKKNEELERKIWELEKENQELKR

4H949-bH = molecular target: T26, 4H949-bH; assay: two-hybrid library CCNG1
T26 chain: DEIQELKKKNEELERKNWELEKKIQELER

4H626-bN = molecular target: T27, 4H626-bN; assay: two-hybrid library CCNG1
T27 chain: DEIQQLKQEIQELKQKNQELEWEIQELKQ

4H906-bN = molecular target: T28, 4H906-bN; assay: two-hybrid library CCNG1
T28 chain: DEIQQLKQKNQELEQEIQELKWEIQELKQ

4H575-bN = molecular target: T29, 4H575-bN; assay: two-hybrid library CCNG1
T29 chain: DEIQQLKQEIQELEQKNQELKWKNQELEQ

4H683-bN = molecular target: T30, 4H683-bN; assay: two-hybrid library CCNG1
T30 chain: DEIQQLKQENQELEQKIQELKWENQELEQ

4H754-bN = molecular target: T31, 4H754-bN; assay: two-hybrid library CCNG1
T31 chain: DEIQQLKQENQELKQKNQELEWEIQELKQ

4H780-bN = molecular target: T32, 4H780-bN; assay: two-hybrid library CCNG1
T32 chain: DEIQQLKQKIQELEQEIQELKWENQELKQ

4H797-bN = molecular target: T33, 4H797-bN; assay: two-hybrid library CCNG1
T33 chain: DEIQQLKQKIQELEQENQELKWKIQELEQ

4H855-bN = molecular target: T34, 4H855-bN; assay: two-hybrid library CCNG1
T34 chain: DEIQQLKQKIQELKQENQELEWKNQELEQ

4H918-bN = molecular target: T35, 4H918-bN; assay: two-hybrid library CCNG1
T35 chain: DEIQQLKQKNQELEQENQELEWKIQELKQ

4H953-bN = molecular target: T36, 4H953-bN; assay: two-hybrid library CCNG1
T36 chain: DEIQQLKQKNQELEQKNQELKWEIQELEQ

4H968-bN = molecular target: T37, 4H968-bN; assay: two-hybrid library CCNG1
T37 chain: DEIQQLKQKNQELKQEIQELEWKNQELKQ

4H535-AA = molecular target: T38, 4H535-AA; assay: two-hybrid library CCmax
T38 chain: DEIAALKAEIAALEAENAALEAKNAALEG

4H58-AA = molecular target: T39, 4H58-AA; assay: two-hybrid library CCmax; conditions: mean of both orientations
T39 chain: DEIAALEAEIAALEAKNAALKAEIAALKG

4H895-AA = molecular target: T40, 4H895-AA; assay: two-hybrid library CCmax; conditions: mean of both orientations
T40 chain: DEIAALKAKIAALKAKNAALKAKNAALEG

4H_APH = molecular target: T41, 4H_APH; assay: two-hybrid library CCmax
T41 chain: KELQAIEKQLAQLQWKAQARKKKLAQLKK

4H_BCR = molecular target: T42, 4H_BCR; assay: two-hybrid library CCmax; conditions: mean of both orientations
T42 chain: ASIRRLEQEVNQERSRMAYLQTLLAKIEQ

4H_GCN4 = assay: two-hybrid library CCmax
GCN2_T = assay: two-hybrid library CCmax

Sequence of 4H_GCN4 (chain, as listed by the source): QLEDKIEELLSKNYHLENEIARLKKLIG

interaction score (4H3029-AA): -1.76
interaction score (4H3066-AA): -1.81
interaction score (4H3102-AA): -0.548
interaction score (4H3121-AA): 1.28
interaction score (4H3417-AA): -1.68
interaction score (4H3446-AA): -1.73
interaction score (4H3591-AA): -1.47
interaction score (4H3628-AA): -1.99
interaction score (4H3666-AA): -1.01
interaction score (4H3709-AA): -1.43
interaction score (4H391-AA): 1.52
interaction score (4H3920-AA): -1.73
interaction score (4H3939-AA): -1.71
interaction score (4H428-AA): -0.913
interaction score (4H478-AA): -1.87
interaction score (4H497-AA): -1.91
interaction score (4H656-AA): -0.731
interaction score (4H675-AA): -0.186
interaction score (4H971-AA): -0.98
B1: 4H2991-AA (peptide)
chain: DKIAALKAKNAALEAKIAALKAKNAALEG

interaction score (4H963-AA): -2.11
B2: 4H963-AA (peptide)
chain: DEIAALKAKNAALKAEIAALEAENAALEG

interaction score (4H349-bH): 0.275
interaction score (4H56-bH): 0.452
interaction score (4H730-bH): -0.225
interaction score (4H796-bH): 0.227
interaction score (4H932-bH): 0.654
interaction score (4H949-bH): -0.023
B3: 4H349-bH (peptide)
chain: DEIQELEKKIEELKRENWELKKKIQELER

interaction score (4H626-bN): 0.832
interaction score (4H906-bN): -0.523
B4: 4H626-bN (peptide)
chain: DEIQQLKQEIQELKQKNQELEWEIQELKQ

interaction score (4H575-bN): -0.842
interaction score (4H683-bN): 0.443
interaction score (4H754-bN): -2.08
interaction score (4H780-bN): -0.38
interaction score (4H797-bN): -1.51
interaction score (4H855-bN): 0.475
interaction score (4H918-bN): 0.56
interaction score (4H953-bN): 0.476
interaction score (4H968-bN): -0.976
B5: 4H575-bN (peptide)
chain: DEIQQLKQEIQELEQKNQELKWKNQELEQ

interaction score (4H535-AA): -0.291
interaction score (4H58-AA): -0.661
interaction score (4H895-AA): 2.1
interaction score (4H_APH): -1.48
interaction score (4H_BCR): -1.23
interaction score (4H_GCN4): -1.41
interaction score (GCN2_T): -2.47
B6: 4H535-AA (peptide)
chain: DEIAALKAEIAALEAENAALEAKNAALEG
